In patent US20150203577A1 (Chugai, published 2015):
Residue numbers refer to the chain shown, from its start. Numbers in names are those of the source.

T1: mouse FcγRIII extracellular domain, C-terminal His tag (mouse, UniProt P08508 31-215)
T1 construct: also called mFcγRIII; mFcgRIII
T1 chain: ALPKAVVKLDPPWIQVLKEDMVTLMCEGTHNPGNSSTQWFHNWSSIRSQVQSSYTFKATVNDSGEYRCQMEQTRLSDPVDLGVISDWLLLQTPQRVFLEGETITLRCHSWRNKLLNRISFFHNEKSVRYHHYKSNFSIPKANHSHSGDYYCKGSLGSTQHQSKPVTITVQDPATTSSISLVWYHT

T2: mouse FcγRII extracellular domain, C-terminal His tag (mouse, UniProt P08101 30-210)
T2 construct: also called mFcγRII; mFcgRII
T2 sequence: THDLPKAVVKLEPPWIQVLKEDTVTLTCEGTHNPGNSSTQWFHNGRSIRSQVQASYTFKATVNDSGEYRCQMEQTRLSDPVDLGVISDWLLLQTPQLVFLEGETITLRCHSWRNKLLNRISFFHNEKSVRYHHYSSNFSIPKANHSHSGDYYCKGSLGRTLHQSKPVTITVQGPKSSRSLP

B1: H237-MB750/MRAL-k0 (antibody, mouse IgG1, kappa)
heavy: QVQLQESGPGLVKPSETLSLTCAVSGHSISHDHAWSWVRQPPGEGLEWIGFISYSGITNYNPSLQGRVTISRDNSKNTLYLQMNSLRAEDTAVYYCARSLARTTAMDYWGEGTLVTVSSAKTTPPSVYPLAPGSAAQTNSMVTLGCLVKGYFPEPVTVTWNSGSLSSGVHTFPAVLQSDLYTLSSSVTVPSSTWPSETVTCNVAHPASSTKVDKKIVPRDCGCKPCICEPNEVELVFIFPPKPKDVLTITLTPKVTCVVVDISKDDPEVQFSWFVDDVEVHTAQTQPREEQFNSTFRSVSELPIMHQDWLNGKEFKCRVNSDAFPAPIEKTISKTKGRPKAPQVYTIPPPKEQMAKDKVSLTCMITDFFPEDITVEWQWNGQPAENYKNTQPIMDTDGSYFVYSKLNVQKSNWEAGNTFTCSVLHEGLHNHHTEKSLSHSPGK
light: not shown
notes: copies: 2 + 2
B2: H237-MB540/MRAL-k0 (antibody, mouse IgG1, kappa)
heavy: B1 heavy with L235M, S294L
light: not shown
notes: copies: 2 + 2
B3: H237-MB751/MRAL-k0 (antibody, mouse IgG1, kappa)
heavy: B1 heavy with D322A, K330R
light: not shown
notes: copies: 2 + 2
B4: H237-MB538/MRAL-k0 (antibody, mouse IgG1, kappa)
heavy: B1 heavy with L235M, S294L, D322A
light: not shown
notes: copies: 2 + 2
B5: H237-MB542/MRAL-k0 (antibody, mouse IgG1, kappa)
heavy: B1 heavy with L235M, N320D
light: not shown
notes: copies: 2 + 2
B6: H237-MB630/MRAL-k0 (antibody, mouse IgG1, kappa)
heavy: B1 heavy with D322A
light: not shown
notes: copies: 2 + 2
B7: H237-MB759/MRAL-k0 (antibody, mouse IgG1, kappa)
heavy: B1 heavy with N320D, D322A, K330R
light: not shown
notes: copies: 2 + 2
B8: H237-MB533/MRAL-k0 (antibody, mouse IgG1, kappa)
heavy: B1 heavy with E229Q, L235E, S294L, N320D
light: not shown
notes: copies: 2 + 2
B9: H237-MB476/MRAL-k0 (antibody, mouse IgG1, kappa)
heavy: B1 heavy with E229Q, L235E, D322A
light: not shown
notes: copies: 2 + 2
B10: H237-MB545/MRAL-k0 (antibody, mouse IgG1, kappa)
heavy: B1 heavy with L235M, S294L, N320D
light: not shown
notes: copies: 2 + 2
B11: H237-MB529/MRAL-k0 (antibody, mouse IgG1, kappa)
heavy: B1 heavy with E229Q, L235E, S294L, D322A, K330R
light: not shown
notes: copies: 2 + 2
B12: H237-MB527/MRAL-k0 (antibody, mouse IgG1, kappa)
heavy: B1 heavy with E229Q, L235E, S294L, N320D, D322A
light: not shown
notes: copies: 2 + 2
B13: H237-MB539/MRAL-k0 (antibody, mouse IgG1, kappa)
heavy: B1 heavy with L235M, S294L, N320D, D322A
light: not shown
notes: copies: 2 + 2
B14: H237-MB548/MRAL-k0 (antibody, mouse IgG1, kappa)
heavy: B1 heavy with L235M, N320D, K330R
light: not shown
notes: copies: 2 + 2
B15: H237-MB756/MRAL-k0 (antibody, mouse IgG1, kappa)
heavy: B1 heavy with S294L, D322A, K330R
light: not shown
notes: copies: 2 + 2
B16: H237-MB530/MRAL-k0 (antibody, mouse IgG1, kappa)
heavy: B1 heavy with E229Q, L235E, N320D
light: not shown
notes: copies: 2 + 2
B17: H237-MB547/MRAL-k0 (antibody, mouse IgG1, kappa)
heavy: B1 heavy with L235M, S294L, K330R
light: not shown
notes: copies: 2 + 2
B18: H237-MB748/MRAL-k0 (antibody, mouse IgG1, kappa)
heavy: B1 heavy with S263A, D322A
light: not shown
notes: copies: 2 + 2
B19: H237-MB544/MRAL-k0 (antibody, mouse IgG1, kappa)
heavy: B1 heavy with L235M, K330R
light: not shown
notes: copies: 2 + 2
B20: H237-MB515/MRAL-k0 (antibody, mouse IgG1, kappa)
heavy: B1 heavy with L235M, D322A
light: not shown
notes: copies: 2 + 2
B21: H237-MB532/MRAL-k0 (antibody, mouse IgG1, kappa)
heavy: B1 heavy with E229Q, L235E, K330R
light: not shown
notes: copies: 2 + 2
B22: H237-MB531/MRAL-k0 (antibody, mouse IgG1, kappa)
heavy: B1 heavy with E229Q, L235E, N320D, D322A, K330R
light: not shown
notes: copies: 2 + 2
B23: H237-MB537/MRAL-k0 (antibody, mouse IgG1, kappa)
heavy: B1 heavy with E229Q, L235E, S294L, N320D, K330R
light: not shown
notes: copies: 2 + 2
B24: H237-MB536/MRAL-k0 (antibody, mouse IgG1, kappa)
heavy: B1 heavy with E229Q, L235E, N320D, K330R
light: not shown
notes: copies: 2 + 2
B25: H237-MB710/MRAL-k0 (antibody)
heavy: B1 heavy with N231A, L235Q, D322A
light: not shown
notes: T0025 prints T230E/V231P/P232N/S238E/S239Q for MB710; EU numbering; copies: 2 + 2
B26: H237-MB754/MRAL-k0 (antibody, mouse IgG1, kappa)
heavy: B1 heavy with N320D, D322A
light: not shown
notes: copies: 2 + 2
B27: H237-MB535/MRAL-k0 (antibody, mouse IgG1, kappa)
heavy: B1 heavy with E229Q, L235E, S294L, K330R
light: not shown
notes: copies: 2 + 2
B28: H237-MB543/MRAL-k0 (antibody, mouse IgG1, kappa)
heavy: B1 heavy with L235M, N320D, D322A, K330R
light: not shown
notes: copies: 2 + 2
B29: H237-MB549/MRAL-k0 (antibody, mouse IgG1, kappa)
heavy: B1 heavy with L235M, S294L, N320D, K330R
light: not shown
notes: copies: 2 + 2
B30: H237-MB749/MRAL-k0 (antibody, mouse IgG1, kappa)
heavy: B1 heavy with Q291L, D322A
light: not shown
notes: copies: 2 + 2

Target: T1, mouse FcγRIII extracellular domain, …
Experiment: SPR (Biacore T200), antibody captured on Protein L, mFcγR analyte
Description: (§1) Each altered antibody was analyzed for its interaction with each Fcγ receptor prepared above using Biacore T100 (GE Healthcare Japan Corp.), Biacore T200 (GE Healthcare Japan Corp.), Biacore A100, or Biacore 4000. The running buffer used was HBS-EP+ (GE Healthcare Japan Corp.). The assay temperature was set to 25° C. The sensor chips used were chips prepared by immobilizing Protein L (ACTIGEN or BioVision) onto Series S Sensor Chip CM5 (GE Healthcare Japan Corp.) or Series S Sensor Chip CM4 (GE Healthcare Japan Corp.) by the amine coupling method.
(§2) In order to calculate the KD value of each altered antibody for FcγR, kinetic analysis was conducted according to the following method: first, the antibody of interest was captured onto any of these chips and allowed to interact with mFcγR diluted with a running buffer. For the obtained sensorgram, the assay results were globally fit into the 1:1 Langmuir binding model using Biacore Evaluation Software to calculate an association rate constant ka (L/mol/s) and a dissociation rate constant kd (1/s). From these values, the dissociation constant KD (mol/L) was calculated.

Row | Kd [nM] | relative mFcγRIII-binding activity (mIgG1 = 1) | Binder
1 | 705 | 0.4 fold vs H237-mIgG1/MRAL-k0 | B1
2 | 99.4 | 2.8 fold vs H237-mIgG1/MRAL-k0 | B2
3 | 890 | 0.3 fold vs H237-mIgG1/MRAL-k0 | B3
4 | 164 | 1.7 fold vs H237-mIgG1/MRAL-k0 | B4
5 | 83.3 | 3.4 fold vs H237-mIgG1/MRAL-k0 | B5
6 | 1120 | 0.3 fold vs H237-mIgG1/MRAL-k0 | B6
7 | 646 | 0.4 fold vs H237-mIgG1/MRAL-k0 | B7
8 | 39 | 7.2 fold vs H237-mIgG1/MRAL-k0 | B8
9 | 107 | 2.6 fold vs H237-mIgG1/MRAL-k0 | B9
10 | 106 | 2.7 fold vs H237-mIgG1/MRAL-k0 | B10
11 | 47.6 | 5.9 fold vs H237-mIgG1/MRAL-k0 | B11
12 | 51 | 5.5 fold vs H237-mIgG1/MRAL-k0 | B12
13 | 147 | 1.9 fold vs H237-mIgG1/MRAL-k0 | B13
14 | 71.7 | 3.9 fold vs H237-mIgG1/MRAL-k0 | B14
15 | 1330 | 0.2 fold vs H237-mIgG1/MRAL-k0 | B15
16 | 35.1 | 8 fold vs H237-mIgG1/MRAL-k0 | B16
17 | 62.3 | 4.5 fold vs H237-mIgG1/MRAL-k0 | B17
18 | 2060 | 0.1 fold vs H237-mIgG1/MRAL-k0 | B18
19 | 87.2 | 3.2 fold vs H237-mIgG1/MRAL-k0 | B19
20 | 214 | 1.3 fold vs H237-mIgG1/MRAL-k0 | B20
21 | 45.4 | 6.2 fold vs H237-mIgG1/MRAL-k0 | B21
22 | 85 | 3.3 fold vs H237-mIgG1/MRAL-k0 | B22
23 | 31.7 | 8.9 fold vs H237-mIgG1/MRAL-k0 | B23
24 | 36.8 | 7.7 fold vs H237-mIgG1/MRAL-k0 | B24
25 | 232 | 1.2 fold vs H237-mIgG1/MRAL-k0 | B25
26 | 1130 | 0.2 fold vs H237-mIgG1/MRAL-k0 | B26
27 | 33.2 | 8.5 fold vs H237-mIgG1/MRAL-k0 | B27
28 | 126 | 2.2 fold vs H237-mIgG1/MRAL-k0 | B28
29 | 52.1 | 5.4 fold vs H237-mIgG1/MRAL-k0 | B29
30 | 740 | 0.4 fold vs H237-mIgG1/MRAL-k0 | B30

target: T2, mouse FcγRII extracellular domain, …; experiment: as above
Description: as §1, §2

Row | Kd [nM] | relative mFcγRII-binding activity (mIgG1 = 1) | Binder
31 | 7.13 | 29.4 fold vs H237-mIgG1/MRAL-k0 | B1
32 | 1.41 | 149 fold vs H237-mIgG1/MRAL-k0 | B2
33 | 8.25 | 25.4 fold vs H237-mIgG1/MRAL-k0 | B3
34 | 2.44 | 86.2 fold vs H237-mIgG1/MRAL-k0 | B4
35 | 0.547 | 384 fold vs H237-mIgG1/MRAL-k0 | B5
36 | 14.7 | 14.3 fold vs H237-mIgG1/MRAL-k0 | B6
37 | 6.21 | 33.8 fold vs H237-mIgG1/MRAL-k0 | B7
38 | 0.534 | 394 fold vs H237-mIgG1/MRAL-k0 | B8
39 | 0.804 | 261 fold vs H237-mIgG1/MRAL-k0 | B9
40 | 1.29 | 163 fold vs H237-mIgG1/MRAL-k0 | B10
41 | 0.745 | 282 fold vs H237-mIgG1/MRAL-k0 | B11
42 | 0.768 | 273 fold vs H237-mIgG1/MRAL-k0 | B12
43 | 2 | 105 fold vs H237-mIgG1/MRAL-k0 | B13
44 | 0.589 | 357 fold vs H237-mIgG1/MRAL-k0 | B14
45 | 19.8 | 10.6 fold vs H237-mIgG1/MRAL-k0 | B15
46 | 0.337 | 623 fold vs H237-mIgG1/MRAL-k0 | B16
47 | 1.23 | 170 fold vs H237-mIgG1/MRAL-k0 | B17
48 | 17.9 | 11.7 fold vs H237-mIgG1/MRAL-k0 | B18
49 | 0.76 | 276 fold vs H237-mIgG1/MRAL-k0 | B19
50 | 1.53 | 137 fold vs H237-mIgG1/MRAL-k0 | B20
51 | 0.639 | 329 fold vs H237-mIgG1/MRAL-k0 | B21
52 | 0.918 | 229 fold vs H237-mIgG1/MRAL-k0 | B22
53 | 0.412 | 510 fold vs H237-mIgG1/MRAL-k0 | B23
54 | 0.53 | 396 fold vs H237-mIgG1/MRAL-k0 | B24
55 | 4.13 | 50.8 fold vs H237-mIgG1/MRAL-k0 | B25
56 | 10 | 21 fold vs H237-mIgG1/MRAL-k0 | B26
57 | 0.498 | 422 fold vs H237-mIgG1/MRAL-k0 | B27
58 | 1.08 | 195 fold vs H237-mIgG1/MRAL-k0 | B28
59 | 1 | 210 fold vs H237-mIgG1/MRAL-k0 | B29
60 | 8.3 | 25.3 fold vs H237-mIgG1/MRAL-k0 | B30
